As a reminder, the stoichiometry N is the number of molecules, sites or subunits per partner or assembly.

The results in this text go back to publication PMC9072662.

The test has as its target Tetrameric photosystem I from Chroococcidiopsis sp. TS-821 isolated with DDM (Chroococcidiopsis sp. TS-821 (endogenous in TS-821 thylakoids)).

“Tetrameric photosystem I from Chroococcidiopsis sp. TS-821 isolated with DDM (complex)” displayed a stoichiometry N of 4.
